Measured values from the supplement of paper PMC10065799, “High-throughput profiling of sequence recognition by tyrosine kinases and SH2 domains using bacterial peptide display” (eLife, 2023).

tested on: AncSZ; test: phosphorylation enrichment, bacterial display (enrichment ratio); higher = better substrate or ligand; peptides without Tyr show the background
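Note: 11-residue human phosphosite peptides and single-mutation variants displayed on the E. coli surface, counted by deep sequencing, each peptide's frequency after selection divided by its frequency in the unselected input library; frequency after pTyr selection over input frequency; kinase dosed for 20-30% of maximal phosphorylation in three min.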

Sequence	phosphorylation enrichment
KVMANYVFKAG [MAML2_Y513_M514V_YF]	0.617
WGLCSYYETSK [MAGED2_Y448_R446C]	1.38
KDIENHIQDGK [RAD50_Y964_Y964H]	0.69
FHKALYTVRTY [PDE6C_Y266_S270T]	0.964
RHRSGYVLIAM [EFR3A_Y73]	1.31
AVNDFYAAKKT [CCDC178_Y422]	0.629
HSFQCYGQNEA [ENTPD3_Y262_R264Q]	0.996
HSVVQYVGGVM [FGGY_Y136_L134V]	0.989
KQINDYVEKGT [SERPINA1_Y184]	0.733
HNLPIYEGFAL [ACTA1_Y168_V165L_YF]	1.86
KEDSAYGSQSV [NFKB2_Y868]	0.978
YSNVLYRPRGA [TMIGD2_Y197]	0.923
RELGEYALAEY [ALDH1A3_Y492]	1.44
YTGSTYRVGDT [FN1_Y106_N104S]	0.72
GHLYAYNWISI [BEST1_Y227_D228N]	1.71
DYYDLYGGEKK [PTPN11_Y66_F71K]	2.84
PPSGEYFGQCG [TRIP6_Y275]	1.58

Sequence	phosphorylation enrichment
LFLACYFIGGG [UBD_Y161_C162F]	1.16
IENKLYGTSDP [RET_Y1062_M1064T]	0.858
REEKNYKLKET [BCLAF1_Y459]	0.996
LYDPDFMKVIL [CYP4A22_Y104_Y104F]	1.18
FGLDRYQCDCT [PTGS1_Y54]	1.1
QMVDMYASSYM [AVPR2_Y124_G122D]	1.22
EKIANYKEGTY [CLRN1_Y171]	0.671
HSLHDYKEALM [ADA2_Y337]	0.663
TQPSPYAVYLF [RPGRIP1_Y823_R827L]	1.06
FADIAYNYRHA [PAH_Y166_G171A]	0.578
LREIRYQGGNR [VWF_Y1570_V1565L]	0.796
VGIMLYGVDSR [PKD1_Y3143]	1.12
THPFLYLSLEI [MLH1_Y293]	1.13
RELGEYGLQAY [ALDH2_Y497]	1.55
VPEANYTSDEE [STK33_Y439_D436E]	1.42
TKLKDYFIFNK [CCDC42_Y149_A144T_YF]	0.685

molecular target: EPHB1 (UniProt P54762); test: as above
Sequence (P54762 whole entry, looked up): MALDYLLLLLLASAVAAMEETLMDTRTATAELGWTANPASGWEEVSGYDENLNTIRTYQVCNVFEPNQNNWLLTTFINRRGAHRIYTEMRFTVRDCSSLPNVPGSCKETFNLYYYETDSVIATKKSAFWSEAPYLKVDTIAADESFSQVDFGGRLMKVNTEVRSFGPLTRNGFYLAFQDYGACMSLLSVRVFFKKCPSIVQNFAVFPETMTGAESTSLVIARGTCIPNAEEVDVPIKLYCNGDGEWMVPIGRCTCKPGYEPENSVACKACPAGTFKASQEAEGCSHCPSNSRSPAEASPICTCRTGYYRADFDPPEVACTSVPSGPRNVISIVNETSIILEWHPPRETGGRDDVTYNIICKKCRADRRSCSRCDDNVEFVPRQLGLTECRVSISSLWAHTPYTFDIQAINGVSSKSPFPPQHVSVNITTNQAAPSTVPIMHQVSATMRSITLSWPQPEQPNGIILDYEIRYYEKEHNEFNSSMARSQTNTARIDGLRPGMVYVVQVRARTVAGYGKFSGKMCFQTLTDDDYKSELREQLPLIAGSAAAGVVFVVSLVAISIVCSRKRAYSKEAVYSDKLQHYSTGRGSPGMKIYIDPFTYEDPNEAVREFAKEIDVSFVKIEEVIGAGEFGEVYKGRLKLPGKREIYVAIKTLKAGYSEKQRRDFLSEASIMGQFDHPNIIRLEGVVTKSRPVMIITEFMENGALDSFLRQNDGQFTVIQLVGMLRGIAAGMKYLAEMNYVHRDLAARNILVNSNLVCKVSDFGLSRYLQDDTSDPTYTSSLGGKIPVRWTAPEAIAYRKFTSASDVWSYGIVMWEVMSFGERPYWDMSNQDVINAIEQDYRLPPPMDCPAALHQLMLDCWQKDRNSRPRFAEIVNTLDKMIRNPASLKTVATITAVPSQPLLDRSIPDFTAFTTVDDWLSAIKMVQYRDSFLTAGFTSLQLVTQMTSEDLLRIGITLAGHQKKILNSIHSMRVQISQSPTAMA

Sequence	phosphorylation enrichment
KVMANYVFKAG [MAML2_Y513_M514V_YF]	0.396
WGLCSYYETSK [MAGED2_Y448_R446C]	0.865
KDIENHIQDGK [RAD50_Y964_Y964H]	0.378
FHKALYTVRTY [PDE6C_Y266_S270T]	0.774
RHRSGYVLIAM [EFR3A_Y73]	0.307
AVNDFYAAKKT [CCDC178_Y422]	0.464
HSFQCYGQNEA [ENTPD3_Y262_R264Q]	0.551
HSVVQYVGGVM [FGGY_Y136_L134V]	0.517
KQINDYVEKGT [SERPINA1_Y184]	0.491
HNLPIYEGFAL [ACTA1_Y168_V165L_YF]	17.5
KEDSAYGSQSV [NFKB2_Y868]	0.502
YSNVLYRPRGA [TMIGD2_Y197]	1.34
RELGEYALAEY [ALDH1A3_Y492]	0.858
YTGSTYRVGDT [FN1_Y106_N104S]	0.422
GHLYAYNWISI [BEST1_Y227_D228N]	6.38
DYYDLYGGEKK [PTPN11_Y66_F71K]	6.24
PPSGEYFGQCG [TRIP6_Y275]	1.39

Sequence	phosphorylation enrichment
LFLACYFIGGG [UBD_Y161_C162F]	0.773
IENKLYGTSDP [RET_Y1062_M1064T]	0.563
REEKNYKLKET [BCLAF1_Y459]	0.691
LYDPDFMKVIL [CYP4A22_Y104_Y104F]	0.772
FGLDRYQCDCT [PTGS1_Y54]	0.625
QMVDMYASSYM [AVPR2_Y124_G122D]	0.558
EKIANYKEGTY [CLRN1_Y171]	0.573
HSLHDYKEALM [ADA2_Y337]	0.546
TQPSPYAVYLF [RPGRIP1_Y823_R827L]	3.03
FADIAYNYRHA [PAH_Y166_G171A]	0.593
LREIRYQGGNR [VWF_Y1570_V1565L]	0.385
VGIMLYGVDSR [PKD1_Y3143]	0.575
THPFLYLSLEI [MLH1_Y293]	0.628
RELGEYGLQAY [ALDH2_Y497]	0.699
VPEANYTSDEE [STK33_Y439_D436E]	0.897
TKLKDYFIFNK [CCDC42_Y149_A144T_YF]	0.52
